Laboratory results from PMC8843702 (2022).

Key:
Assay in all cases: SPR
[1] = target: T1, WT SARS-CoV-2 S RBD protein (SARS-CoV-2, UniProt P0DTC2)
SARS-CoV-2 S protein = SARS-CoV-2 S protein (SARS-CoV-2, UniProt P0DTC2)
[2] = target: T1, WT SARS-CoV-2 S RBD protein; remark: listed apart in the source

B1: P5-22 (antibody, V domains shown)
VH: EVQLVESGGGLVKPGGSLRLSCAASGFTFRDYDIIWIRQAPGKGLEWVSYISRSGSTIYYSDSVRGRFTISRDNAKNSVYLQMNSLRAEDTAVYYCARDFGFEGPRMDVWGQGTTVTVSS
VL: DIQMTQSPSSLSASVGDRVTITCQASQDIKNYLNWYQQKPGKAPKLLIYDASNLETGVPSRFSGSGSGTDFTFTISSLQPEDIATYYCQQFDNLPITFGQGTRLEIK
koff [1]: < 1e-05 s⁻¹ | Kd (SARS-CoV-2 S protein): < 3.34 pM | Kd [2]: < 4.59 pM

B2: polymeric P5-22 (antibody, V domains shown)
VH: EVQLVESGGGLVKPGGSLRLSCAASGFTFRDYDIIWIRQAPGKGLEWVSYISRSGSTIYYSDSVRGRFTISRDNAKNSVYLQMNSLRAEDTAVYYCARDFGFEGPRMDVWGQGTTVTVSS
VL: DIQMTQSPSSLSASVGDRVTITCQASQDIKNYLNWYQQKPGKAPKLLIYDASNLETGVPSRFSGSGSGTDFTFTISSLQPEDIATYYCQQFDNLPITFGQGTRLEIK
koff [1]: < 1e-05 s⁻¹ | Kd [2]: < 0.498 pM
